Reference: publication PMC5111828
One block for each substance: values may come before it.

Tests used:
Hsp90 (Homo sapiens) = Hsp90 (Homo sapiens) (UniProt P07900); assay: size exclusion chromatography; settings: cited from earlier work
[1] = biological target: Bcl-2 associated athanogene 3 (Bag3) (UniProt O95817); assay: cross-linking
Bag3 (Homo sapiens) [2] = biological target: Bag3 (Homo sapiens) (UniProt O95817); assay: ITC; settings: cited from earlier work
Bag3 (Homo sapiens) [3] = biological target: Bag3 (Homo sapiens) (UniProt O95817); assay: APCE; settings: cited from earlier work
[4] = biological target: Bcl-2 associated athanogene 3 (Bag3) (UniProt O95817); assay: flow cytometry protein interaction assay
Hsp70 Alexa Fluor 488 = Hsp70 Alexa Fluor 488 (UniProt P0DMV8); assay: cross-linking

Hsp70, sequence (P0DMV8 2-641): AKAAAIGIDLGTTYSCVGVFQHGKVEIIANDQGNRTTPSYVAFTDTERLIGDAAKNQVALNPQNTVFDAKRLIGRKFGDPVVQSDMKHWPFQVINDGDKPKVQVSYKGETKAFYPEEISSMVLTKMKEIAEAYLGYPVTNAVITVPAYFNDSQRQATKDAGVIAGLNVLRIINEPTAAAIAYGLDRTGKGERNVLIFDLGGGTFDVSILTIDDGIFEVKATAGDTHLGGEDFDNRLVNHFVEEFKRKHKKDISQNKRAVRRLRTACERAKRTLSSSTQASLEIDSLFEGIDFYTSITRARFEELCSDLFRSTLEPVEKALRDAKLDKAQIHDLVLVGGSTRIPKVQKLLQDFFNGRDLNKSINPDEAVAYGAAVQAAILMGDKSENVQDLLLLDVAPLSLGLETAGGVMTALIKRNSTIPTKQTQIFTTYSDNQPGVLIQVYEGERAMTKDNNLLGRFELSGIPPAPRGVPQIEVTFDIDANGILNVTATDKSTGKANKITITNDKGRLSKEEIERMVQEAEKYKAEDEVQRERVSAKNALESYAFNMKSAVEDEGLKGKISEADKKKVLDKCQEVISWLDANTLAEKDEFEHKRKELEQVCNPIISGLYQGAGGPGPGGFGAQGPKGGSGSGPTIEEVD

Ki [1]: 400 nM
Substance: Hsp70 R,R 258,262 A,A (from UniProt P0DMV8 1-641) (natural protein)

Kd (Hsp70 Alexa Fluor 488): 25 nM
Substance: Bcl-2 associated athanogene 3 (Bag3) (from UniProt O95817 1-575) (natural protein)

Ki [1]: 160 nM
Substance: Hsp70 E,D 283, 292 A,A (from UniProt P0DMV8 1-641) (natural protein)

Second part, the substance before the results:

Substance: Hsp90 (from UniProt P07900)
Kd (Hsp90 (Homo sapiens)): 60 nM

Substance: Hsp70 (from UniProt P0DMV8)
Kd (Bag3 (Homo sapiens) [2]): 15 nM
Kd (Bag3 (Homo sapiens) [3]): 23 nM

Substance: unlabeled Hsp70 (Wild-Type) (from UniProt P0DMV8 1-641) (natural protein)
Ki [4]: 15 nM
